Source: the supplement of paper PMC9112550, “Optimization of the antimicrobial peptide Bac7 by deep mutational scanning” (BMC Biology, 2022)

Test system: Escherichia coli TOP10
Experiment: shrunken log2 fold change of peptide-encoding DNA abundance (4.5 h post-induction vs induction); higher = less antimicrobial activity (less host growth inhibition)
Conditions: time post-induction: 4.5 h; library: site-saturation at positions 5, 18, 19, 20
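Further: peptides expressed intracellularly from a pBAD plasmid library in pooled LB shake-flask culture, induced with 0.3% L-arabinose, DNA abundance read by NGS, three biological replicates, DESeq2 with apeglm shrinkage.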

| Sequence | shrunken log2 fold change |
| --- | --- |
| RRIRNRPPRLPRPRPRPEFAPRP | 0.175 |
| RRIRSRPPRLPRPRPRPVFLPRP | -0.131 |
| RRIRHRPPRLPRPRPRPWAGPRP | -0.15 |
| RRIRERPPRLPRPRPRPYEKPRP | -0.0219 |
| RRIRSRPPRLPRPRPRPSLKPRP | 0.0541 |
| RRIRHRPPRLPRPRPRPCMRPRP | 0.0267 |
| RRIRERPPRLPRPRPRPRYFPRP | -0.54 |
| RRIRERPPRLPRPRPRPPPVPRP | 0.261 |
| RRIRTRPPRLPRPRPRPHMDPRP | -0.422 |
| RRIRWRPPRLPRPRPRPCWDPRP | 0.0945 |
| RRIRARPPRLPRPRPRPKQFPRP | 0.3 |
| RRIRPRPPRLPRPRPRPANAPRP | 0.0662 |
| RRIRNRPPRLPRPRPRPSHQPRP | -0.374 |
| RRIRHRPPRLPRPRPRPQAPPRP | -0.0401 |
| RRIRGRPPRLPRPRPRPCRYPRP | 0.24 |
| RRIRLRPPRLPRPRPRPLKRPRP | -0.0716 |
| RRIRMRPPRLPRPRPRPLEAPRP | 2.46 |
| RRIRWRPPRLPRPRPRPVCNPRP | 0.0983 |
| RRIRNRPPRLPRPRPRPRINPRP | -0.14 |
| RRIRDRPPRLPRPRPRPLFNPRP | -0.375 |
| RRIRQRPPRLPRPRPRPILRPRP | 0.034 |
| RRIRSRPPRLPRPRPRPPTVPRP | 0.153 |
| RRIRMRPPRLPRPRPRPGMLPRP | -0.0146 |
| RRIRFRPPRLPRPRPRPSWIPRP | -0.177 |
| RRIRLRPPRLPRPRPRPYFVPRP | -0.65 |

| Sequence | shrunken log2 fold change |
| --- | --- |
| RRIRTRPPRLPRPRPRPPHKPRP | 0.242 |
| RRIRQRPPRLPRPRPRPYMRPRP | -0.0086 |
| RRIRCRPPRLPRPRPRPIPHPRP | -0.744 |
| RRIRIRPPRLPRPRPRPKERPRP | -0.00236 |
| RRIRKRPPRLPRPRPRPEPWPRP | 0.895 |
| RRIRQRPPRLPRPRPRPSKGPRP | 0.0585 |
| RRIRTRPPRLPRPRPRPMNVPRP | 0.0707 |
| RRIRTRPPRLPRPRPRPSDFPRP | -0.704 |
| RRIRMRPPRLPRPRPRPHCAPRP | 1.76 |
| RRIRRRPPRLPRPRPRPHKDPRP | -0.11 |
| RRIRCRPPRLPRPRPRPPNGPRP | -0.0741 |
| RRIRHRPPRLPRPRPRPRDSPRP | 0.0922 |
| RRIRDRPPRLPRPRPRPIEFPRP | 0.144 |
| RRIRGRPPRLPRPRPRPFTVPRP | -0.31 |
| RRIRSRPPRLPRPRPRPLATPRP | 0.627 |
| RRIRGRPPRLPRPRPRPTYSPRP | -0.0883 |
| RRIRWRPPRLPRPRPRPHWSPRP | -0.182 |
| RRIRWRPPRLPRPRPRPSHTPRP | 0.0847 |
| RRIRIRPPRLPRPRPRPTVHPRP | 0.0548 |
| RRIRMRPPRLPRPRPRPDFVPRP | 0.00674 |
| RRIRYRPPRLPRPRPRPWPVPRP | 0.0536 |
| RRIRFRPPRLPRPRPRPPANPRP | 0.858 |
| RRIRMRPPRLPRPRPRPFPSPRP | -0.18 |
| RRIRARPPRLPRPRPRPGRTPRP | 0.683 |
| RRIRKRPPRLPRPRPRPPHEPRP | 0.491 |

| Sequence | shrunken log2 fold change |
| --- | --- |
| RRIRVRPPRLPRPRPRPFGLPRP | -0.0857 |
| RRIRKRPPRLPRPRPRPQMHPRP | 0.0713 |
| RRIRERPPRLPRPRPRPAAWPRP | 0.443 |
| RRIRMRPPRLPRPRPRPIKFPRP | -0.5 |
| RRIRLRPPRLPRPRPRPYPNPRP | -1.27 |
| RRIRGRPPRLPRPRPRPECKPRP | 0.841 |
| RRIRQRPPRLPRPRPRPYWWPRP | -0.143 |
| RRIRRRPPRLPRPRPRPYYCPRP | -0.132 |
| RRIRCRPPRLPRPRPRPSDYPRP | -1.15 |
| RRIRDRPPRLPRPRPRPEPTPRP | 0.885 |
| RRIRVRPPRLPRPRPRPTQLPRP | 0.504 |
| RRIRNRPPRLPRPRPRPVDIPRP | 0.00355 |
| RRIRLRPPRLPRPRPRPDHIPRP | -0.221 |
| RRIRCRPPRLPRPRPRPRFCPRP | 0.071 |
| RRIRWRPPRLPRPRPRPKLRPRP | 0.132 |
| RRIRIRPPRLPRPRPRPMYMPRP | 0.00884 |
| RRIRMRPPRLPRPRPRPITMPRP | 0.0833 |
| RRIRSRPPRLPRPRPRPCWCPRP | 0.0677 |
| RRIRFRPPRLPRPRPRPVGSPRP | -0.0263 |
| RRIRTRPPRLPRPRPRPWYNPRP | -0.325 |
| RRIRHRPPRLPRPRPRPFFPPRP | -0.285 |
| RRIRRRPPRLPRPRPRPPWFPRP | 0.479 |
| RRIRGRPPRLPRPRPRPEQDPRP | 1.47 |
| RRIRVRPPRLPRPRPRPAMPPRP | 0.0637 |
| RRIRFRPPRLPRPRPRPCRWPRP | 0.0901 |

| Sequence | shrunken log2 fold change |
| --- | --- |
| RRIRPRPPRLPRPRPRPEKNPRP | 0.101 |
| RRIRFRPPRLPRPRPRPESCPRP | -0.141 |
| RRIRVRPPRLPRPRPRPVLSPRP | -0.11 |
| RRIRKRPPRLPRPRPRPGPLPRP | 0.578 |
| RRIRTRPPRLPRPRPRPWHPPRP | -0.179 |
| RRIRWRPPRLPRPRPRPNIQPRP | -0.0736 |
| RRIRMRPPRLPRPRPRPMDLPRP | -0.0207 |
| RRIRLRPPRLPRPRPRPFLTPRP | -0.434 |
| RRIRSRPPRLPRPRPRPGEKPRP | -0.000687 |
| RRIRLRPPRLPRPRPRPQLIPRP | -0.0529 |
| RRIRYRPPRLPRPRPRPMKSPRP | -0.416 |
| RRIRQRPPRLPRPRPRPTRHPRP | 0.434 |
| RRIRARPPRLPRPRPRPEIAPRP | 0.992 |
| RRIRTRPPRLPRPRPRPGTTPRP | -0.342 |
| RRIRFRPPRLPRPRPRPKLTPRP | -0.069 |
| RRIRERPPRLPRPRPRPNNHPRP | -0.933 |
| RRIRARPPRLPRPRPRPEGQPRP | 1.2 |
| RRIRKRPPRLPRPRPRPKYAPRP | 0.208 |
| RRIRTRPPRLPRPRPRPVAVPRP | 0.0298 |
| RRIRGRPPRLPRPRPRPIKDPRP | 0.309 |
| RRIRVRPPRLPRPRPRPMATPRP | -0.182 |
| RRIRLRPPRLPRPRPRPGVYPRP | -0.221 |
| RRIRMRPPRLPRPRPRPDICPRP | -0.01 |
| RRIRSRPPRLPRPRPRPQLHPRP | -0.175 |
| RRIRQRPPRLPRPRPRPKRQPRP | 0.0299 |

| Sequence | shrunken log2 fold change |
| --- | --- |
| RRIRLRPPRLPRPRPRPARMPRP | 0.386 |
| RRIRRRPPRLPRPRPRPEWNPRP | 0.471 |
| RRIRERPPRLPRPRPRPEWRPRP | 0.334 |
| RRIRWRPPRLPRPRPRPTYVPRP | 0.0417 |
| RRIRARPPRLPRPRPRPQPHPRP | 0.347 |
| RRIRWRPPRLPRPRPRPGCGPRP | 0.784 |
| RRIRHRPPRLPRPRPRPFVIPRP | -0.331 |
| RRIRRRPPRLPRPRPRPAEHPRP | 0.313 |
| RRIRARPPRLPRPRPRPHEYPRP | -0.0609 |
| RRIRHRPPRLPRPRPRPHIKPRP | -0.83 |
| RRIRLRPPRLPRPRPRPVPHPRP | -0.128 |
| RRIRHRPPRLPRPRPRPKIAPRP | 0.00548 |
| RRIRPRPPRLPRPRPRPRSRPRP | 0.386 |
| RRIRTRPPRLPRPRPRPIMNPRP | 0.0436 |
| RRIRVRPPRLPRPRPRPRIVPRP | 0.166 |
| RRIRCRPPRLPRPRPRPWAPPRP | -0.102 |
| RRIRFRPPRLPRPRPRPHVWPRP | 0.491 |
| RRIRERPPRLPRPRPRPGWMPRP | 0.144 |
| RRIRQRPPRLPRPRPRPWSDPRP | -0.276 |
| RRIRSRPPRLPRPRPRPKELPRP | 0.0175 |
| RRIRHRPPRLPRPRPRPIICPRP | -0.168 |
| RRIRPRPPRLPRPRPRPCDPPRP | -0.575 |
| RRIRYRPPRLPRPRPRPHVWPRP | 0.0773 |
| RRIRNRPPRLPRPRPRPHNSPRP | -0.767 |
| RRIRRRPPRLPRPRPRPEICPRP | 0.181 |
